Measured values reported in publication PMC7550718.

Key:
SHP1 R30Q (human) = SHP1 R30Q (human) (UniProt P29350)
[1] = target: Full length wild type SHP1 (human) (UniProt P29350)
SHP1 R136Q (human) = SHP1 R136Q (human) (UniProt P29350)
SHP1 R30Q R136Q (human) = SHP1 R30Q R136Q (human) (UniProt P29350)

increase of phosphatase activity on DiFMUP with 0 to 3,000 nM SIRPα peptide (fold at 3 μM) (SHP1 R30Q (human)): 1.8 fold | increase of SHP1 phosphatase activity on DiFMUP with 0 to 3,000 nM SIRPα peptide (fold) [1]: 35 fold | increase of phosphatase activity on DiFMUP with 0 to 3,000 nM SIRPα peptide (fold at 3 μM) (SHP1 R136Q (human)): 3.5 fold | increase of phosphatase activity on DiFMUP with 0 to 3,000 nM SIRPα peptide (fold at 3 μM) (SHP1 R30Q R136Q (human)): 1.1 fold
Substance: SIRPα di-phosphopeptide corresponding to residues 427 to 460 of human SIRPα (H2N-ITpYADLNLP-PEG8-HTEpYASIQTSK-NH2)
